Source: publication PMC4320627, “Transcription factor MrpC binds to promoter regions of hundreds of developmentally-regulated genes in Myxococcus xanthus”

T1: His10-MrpC2 (Myxococcus xanthus, UniProt Q1D244 26-248)
T1 sequence: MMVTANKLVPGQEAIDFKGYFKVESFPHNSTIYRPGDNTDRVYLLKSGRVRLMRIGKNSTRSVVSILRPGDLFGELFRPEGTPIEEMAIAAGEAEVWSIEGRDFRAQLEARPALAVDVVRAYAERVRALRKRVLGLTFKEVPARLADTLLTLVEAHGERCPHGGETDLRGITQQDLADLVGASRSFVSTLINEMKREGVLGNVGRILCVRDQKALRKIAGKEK

T2: FruA-His6 (Myxococcus xanthus) (UniProt Q1D7Q3)
T2 sequence: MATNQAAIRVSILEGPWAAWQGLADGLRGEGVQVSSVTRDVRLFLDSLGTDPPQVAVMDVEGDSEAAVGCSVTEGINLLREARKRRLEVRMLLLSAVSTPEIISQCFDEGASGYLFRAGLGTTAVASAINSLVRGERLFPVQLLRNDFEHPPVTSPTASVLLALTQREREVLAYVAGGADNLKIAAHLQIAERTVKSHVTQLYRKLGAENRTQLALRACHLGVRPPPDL

B1: MXAN_0524 probe B (dsDNA)
DNA 1: CACAGTCAACGTTTCTCCATCCAGCCCACCTGTCCTCCAC
DNA 2: GTGGAGGACAGGTGGGCTGGATGGAGAAACGTTGACTGTG
B2: MXAN_0524 probe A (dsDNA)
DNA 1: CCGTCCCAACAACTGATACACAGTCAACGTTTCTCCATCC
DNA 2: GGATGGAGAAACGTTGACTGTGTATCAGTTGTTGGGACGG
B3: MXAN_0524 probe C (dsDNA)
DNA 1: CATCCAGCCCACCTGTCCTCCACTGAACACGTACTGGCAC
DNA 2: GTGCCAGTACGTGTTCAGTGGAGGACAGGTGGGCTGGATG

These molecules were tested against T1, His10-MrpC2 (assay: EMSA; 1 uM protein; EMSA, 2 nM 32P-labeled DNA, 25 C, 15 min; buffer as in cited ref 127 (not given)). Conditions: protein: recombinant; tags: N-terminal His10; chain copies: 2; label: 32P; blunt.
B1: no binding.
B2: binds.
B3: binds.

Each molecule was assayed against T2, FruA-His6 (Myxococcus xanthus) (assay: EMSA). Conditions: 2 nM 32P-labeled DNA, 25 C, 15 min, buffer as in cited ref 127 (not given).
With “GTACCAACTCGCGCACGTCGGGTGCGGGCAGTCCGTAGCGCTGGCCGTTCAGGGTGAACAGCAGCACCTCCGTGGGTGCGGGGGTCATGTCCTGGGACATAAGACGTGGGCGTGGCCACTGTCGAACATTGATGTCGGCCCGCGGTCGCGGTGTCCACCAGTCCTCAGTGGAGGCAGGAGGAGGGGCCCATGGTTCGGGGGGAACACGACAGGTGCTCGCTGTGC (double strand) [cheW6a PCR]” the binding was “binds”.
With “CGAGCTCCTGTGAACCGAAGTCATGCTGCTGGTAGGAGCCCGCTGGGTCTGCCCAGACCTCGCCAATGAGGCGCTGGTCCATTAATTGCTCAACGCAACAACTTGCGAAGCAGTCTGTCGGCTACTTGACCGTGCTTGCCAGTGAATGAGAAGTGACGCCTGCGTGCTGACCGTAATGGGACAGGCGGGGACCATGTATATGAGGTGGAAGAAGC (double strand) [MXAN_5802 PCR]” the binding was “no binding”.
With “GTCTTCCTTGTTGATGAGCCCCGGAGGGGCCATCGCGGTGGGCATAGCGCTCGCAGCGGAGCCCTTCTTCTTCTCATCGGACATGAAATTCAGCCTTTTCTCTTCGACAACCAGTGAACATTTCCAGGTTTTCTGCGGCGGATGAACCAACGTAACAACCAAAACGGACATGGCAAACGCAGTGTGCGTTTTTCCGCCCCCCGTCACCTCTCCAGGGTTCCTCGGAAGTC (double strand) [bsgA PCR]” the binding was “binds”.
With “GGCGAACGGGACTTTCCTTCTCCAAGGTTCGTGCCAGCGGGAATTGAAATGCCGCCGGGACAACACCTCCTGAAATGCCGGGTACTTAGCGCTACAGGCCCGCACCAGAGCCCGTTCTGTGTCCAAAACCTGAAACAGAACGTTCAAACAGTCTGATCAATTTGAACGAAACGTTCAAACCGGGGGCATGAGTGTCGGAGCAG (double strand) [mrpC upstream PCR]” the binding was “no binding”.
In the case of “CAAGGTGATGATGTGCGTCGAGGCTATCGGCCATGTGCGGGAGCGTCAATGTTCGGACCGGGCGGAATTCCGGCTGCCCGGGGAGCGGGCAAGCGCCGTCACACAGCCGACGTTTCCGTCACTGAGGGTACGTCGGGTACGTCACTGGCTCGACGGAGATGGGCGGCCAGGAGTGCGGCGTGCGCGGCGCGGGCGGGAGCGAATACAGCGGCTCG (double strand) [frzS PCR]”, the binding is reported as “no binding”.
“CTCGTTTACGAACTCGTCTGGTCCAAGTACCTCGGGAATGTCCTGGGGAACAGCGGCCAGGCGCATGCCGTGGTGCTCGCCACGTTCATGGGAGGGCAAGCGCTGGGCGCATTTGTCTTCGGGCGGACAGCCGACCGGGCAAAGAACCCCCTGGCCCTTTACGGCCTGCTGGAGCTGGGCGTGGGCCTGTACGCGCTGGTCTTC (double strand) [mrpA PCR]” was tested, and the binding was “binds more weakly”.
“CCAGGGAACGTAGAAGTCTGGCAGTTCGAATGGCTGCTTGTTTTTCGCCGTACTCATGGACGCCCCTCGTTGAACTCAGGGGGGCGTTATAGTTAGGCGCTGAACACTTATCCAAGTGTTTCTTGCATAAAAGATTCTCTGGAGAAGTCGCGATTTGCCTGCTGGCGCACGGATTTAGCTCCATCCGTGCGCCGTATTGCTC (double strand) [MXAN_6247 PCR]” was tested, and the binding was “binds”.
For “GTGGGCATCCACGAAGCGCGCCCCGGACTGGTGCGCCCCCTGCTGTCGTGCACGCGGGAGGAGGTGGTGGCCTTCCTGGCGGAGCAGGGTGTCGCCTATGTGACAGACCCGATGAACACCGACCCTGTCCACTTCCGGACGCGCGTTCGCCTTGGAGTGCTACCCGCCCTGTCGCGCGCCGCTGGCTTCGCGGTGGAGG (double strand) [MXAN_4360 PCR]”, the binding was “binds more weakly”.
With “GGATTTGCCTTTGCACCTCCAGAACCACCAGTGGGTGAAACAATGTCAACGGGAGTCCTTCGCCACGGCCTTGATTGTCCCTTAGCAAACACAGTGAACCGCACAGCGACAAGGCAGGAATTCGCCCACGCTGGACTCACGGCACGTCGGAAGCATCTCTTGGGAATCAAGAATTGAGTGAGGTCCATCGCCCTGCAATCGATGGCAAAGAG (double strand) [pkn8 PCR]” the binding was “no binding”.
For “GATTAGCACTACGCATGCCAACCCAGGTGCGCACTCCAAGCCCCCCAATTCTCAAGGCTTGGAACAATCCCCTCGGCGAGGATGGGTCCAGGGCTGACAAAATTCGGCAGTGACGCTGACGATAACTGTCGATCAGCCTACGCATCCGAAGCGCTCCCGGGCTCCAAGTCATCCGTCAGCCCATGCTTGGCCAACCGGTAGCGGAATGAACGGAACGAAAG (double strand) [pilA PCR]”, the binding was “no binding”.
